Numbering of substitutions follows the chain as printed. Values belong to the binder of their own block, whether it stands above or below them.
Experiments:
[1] = target: T1, human CD40 extracellular domain (recombinant) (human, UniProt P25942 21-193); assay: SPR, Biacore 8K; antibody on CM5 chip, hCD40 at various concentrations
T1 construct: Extracellular domain expressed in 293F cells; also called hCD40; CD40-His; not shown: tag (His, Avi-His, mouse Fc or human Fc)
Protocol: The binding affinity of the optimized anti-CD40 antibodies with human […] was characterized using Biacore 8K (GE). Anti-CD4 (antibodies were stabilized on sensor chip CM5 The affinities for hCD40 at various concentrations were measured. Using the SPR technology, the association and dissociation rates were measured, and binding affinity was determined.

human CD40 on cells [2] = target: T2, human CD40 on cells (human, UniProt P25942 21-277); assay: cell-based or functional assay
[3] = target: T1, human CD40 extracellular domain …; assay: ELISA, plate coated with recombinant human CD40 extracellular domain, antibody (human IgG4 format) in serial dilution, anti-human IgG-HRP, OD450
Protocol: (§1) ELISA Binding Assay: The selected monoclonal full-length antibodies D1, D2, D3, D5, D6, or D7 were subjected to binding assays with CD40 extracellular domain of different species, respectively. The assay was designed to identify full-length antibodies that cross-reacted with CD40 of different species. Briefly, the human or Rhesus monkey CD40 prepared in example 1 was dissolved in PBS and coated on […] with 0.1 μg/well followed by incubation at 4° C. overnight. The 96-well plates were washed with TBST before adding antibodies, blocked with 5% milk for 1-2 h at 37° C., and washed again with TBST. Firstly, each antibody sample was diluted to 10 μg/mL, and then serially diluted at a 1:3 ratio. 100 μL of serially diluted antibodies were added to each well and incubated for 1 h at 37° C. After washing with TBST for 6 times, 100 μL of the secondary antibody (goat anti-human IgG-HRP (Sigma. A8667)) was added to each well and incubated for 1 h at 37° C. After washing with TBST for 3 times, TMB was added with 100 μL/well and incubated for 10-20 minutes at 37° C. 2M H₂SO₄ was used to stop the reaction and plates were read for the absorbance at 450 nm. The ELISA results were then analyzed and the binding curves were generated by PRISM.
(§2) The biding affinity of the optimized full length CD40 antibodies with human or rhesus monkey CD40 was evaluated by Elisa according to the corresponding protocol as described in Example 2, and ASKP1240 was used as control.

[4] = target: T3, Rhesus monkey CD40 extracellular domain (recombinant) (Rhesus monkey, UniProt F6SNI1 21-193); assay: ELISA, plate coated with recombinant rhesus monkey CD40 extracellular domain, antibody (human IgG4 format) in serial dilution, anti-human IgG-HRP, OD450
T3 construct: extracellular domain; also called RheCD40
Protocol: as §1, §2

human CD40 on cells [5] = target: T2, human CD40 on cells; assay: cell-based or functional assay; remark: listed apart in the source

T2 sequence (P25942 21-277 limits assumed): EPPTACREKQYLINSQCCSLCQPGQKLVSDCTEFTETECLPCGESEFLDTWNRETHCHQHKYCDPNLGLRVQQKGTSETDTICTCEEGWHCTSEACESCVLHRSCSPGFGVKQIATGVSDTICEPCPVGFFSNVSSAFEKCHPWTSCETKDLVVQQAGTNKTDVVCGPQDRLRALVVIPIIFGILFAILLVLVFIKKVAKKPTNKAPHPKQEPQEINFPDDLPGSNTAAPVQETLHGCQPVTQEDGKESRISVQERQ
T1 sequence (P25942 21-193): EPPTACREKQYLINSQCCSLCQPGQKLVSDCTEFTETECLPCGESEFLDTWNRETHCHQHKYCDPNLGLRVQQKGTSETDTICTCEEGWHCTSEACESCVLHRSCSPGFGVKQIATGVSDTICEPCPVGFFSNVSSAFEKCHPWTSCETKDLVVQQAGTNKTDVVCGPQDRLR

B1: D21 (antibody, human IgG4, V domains shown)
VH: QVQLVQSGAEVKKPGASVKVSCKASVYSFTGYTVNWVRQAPGQRLEWMGLINPRNGGTTYNQKFKGRVTLTIDKSASTAYMELSSLRSEDTAVYYCAWSYYSNPYAMDYWGQGTLVTVSS
VL: EIVMTQSPATLSVSPGERATLSCKASQNVHTRVAWYQQKPGQAPRLLIYLASDRRTGIPARFSGSGSGTEFTLTISSLQSEDFAVYYCLQHWNYPLTFGQGTKVEIK
notes: also called optimized anti-CD40 antibody D21
Kd [1]: 2.54 nM | koff [1]: 0.000606 s⁻¹ | kon [1]: 238000 M⁻¹ s⁻¹ | IC50, HEK-Blue CD40L NF-κB activation assay (SEAP), antibody as human IgG4 (human CD40 on cells [2]): 0.0102 µg/mL | EC50 (read off the curve) [3]: ~0.2 µg/mL | EC50 (read off the curve) [4]: ~0.1 µg/mL

B2: D25 (antibody, human IgG4, V domains shown)
VH: B1 VH with T33V, R54Y, W98S
VL: B1 VL with R32A
IC50, HEK-Blue CD40L NF-κB activation assay (SEAP), antibody as human IgG4 (human CD40 on cells [2]): 0.0273 µg/mL

B4: D28 (antibody, human IgG4, V domains shown)
VH: B1 VH with R54Y, N55S, W98S, N103R
VL: B1 VL with Y94S
IC50, HEK-Blue CD40L NF-κB activation assay (SEAP), antibody as human IgG4 (human CD40 on cells [2]): 0.0124 µg/mL

B5: D27 (antibody, human IgG4, V domains shown)
VH: B1 VH with N52V, R54Y, W98S, Y100G
VL: B1 VL with R32N
IC50, HEK-Blue CD40L NF-κB activation assay (SEAP), antibody as human IgG4 (human CD40 on cells [2]): 0.0298 µg/mL

B9: D30 (antibody, human IgG4, V domains shown)
VH: B1 VH with R54Y, T59W, W98S, Y100M
VL: B1 VL
IC50, HEK-Blue CD40L NF-κB activation assay (SEAP), antibody as human IgG4 (human CD40 on cells [2]): 0.018 µg/mL

B10: D23 (antibody, human IgG4, V domains shown)
VH: B1 VH with S28G, R54Y, W98S, M107N
VL: B1 VL with R32A, A51R, H91A
IC50, HEK-Blue CD40L NF-κB activation assay (SEAP), antibody as human IgG4 (human CD40 on cells [2]): 0.0169 µg/mL

B13: D31 (antibody, human IgG4, V domains shown)
VH: B1 VH with R54Y, T59S, W98S, M107A
VL: B1 VL
IC50, HEK-Blue CD40L NF-κB activation assay (SEAP), antibody as human IgG4 (human CD40 on cells [2]): 0.0139 µg/mL

B14: D22 (antibody, human IgG4, V domains shown)
VH: B1 VH with R54Y, N55T, W98S, N103K
VL: B1 VL with N93T
IC50, HEK-Blue CD40L NF-κB activation assay (SEAP), antibody as human IgG4 (human CD40 on cells [2]): 0.0219 µg/mL

B18: D24 (antibody, human IgG4, V domains shown)
VH: B1 VH with R54K, W98S, Y100L
VL: B1 VL
IC50, HEK-Blue CD40L NF-κB activation assay (SEAP), antibody as human IgG4 (human CD40 on cells [2]): 0.0164 µg/mL

B19: D29 (antibody, human IgG4, V domains shown)
VH: B1 VH with R54M, W98S, M107G
VL: B1 VL with Y94R
IC50, HEK-Blue CD40L NF-κB activation assay (SEAP), antibody as human IgG4 (human CD40 on cells [2]): 0.0342 µg/mL

B28: D26 (antibody, human IgG4, V domains shown)
VH: B1 VH with R54Y, G57R, W98S, M107N
VL: B1 VL
notes: also called optimized anti-CD40 antibody D26
Kd [1]: 2.74 nM | koff [1]: 0.000596 s⁻¹ | kon [1]: 218000 M⁻¹ s⁻¹ | IC50, HEK-Blue CD40L NF-κB activation assay (SEAP), antibody as human IgG4 (human CD40 on cells [2]): 0.00908 µg/mL | EC50 (read off the curve) [3]: ~0.2 µg/mL | EC50 (read off the curve) [4]: ~0.1 µg/mL

B29: D4 (antibody, V domains shown)
VH: EVMLVESGAELVRPGASVKLSCTASGFKIKDSYIHWMIQRPEQGLEWIGRIDPTNGNTNFDPKFRGKATLTTDTSSNTAYLQLSSLTSEDTAVYYCVPNYYGSRYPFSYWGQGTTVTVSS
VL: QIVLTQSPAIMSASPGEKVTMTCSGSSSVSYMHWFQQKPGNSPKIWIYFTSNLASGVPARFSGSGSGTSYSLTISRMEAGDAATYYCQQGSTYPLTFGAGTKLELK
IC50, HEK-Blue CD40L NF-κB activation assay (SEAP), Fc-3*G4S-CD40L stimulus (human CD40 on cells [5]): 0.0167 µg/mL

Continued, values first:

IC50, HEK-Blue CD40L NF-κB activation assay (SEAP), antibody as human IgG4 (human CD40 on cells [2]): 0.0164 µg/mL
B3: D32 (antibody, human IgG4, V domains shown)
VH: B1 VH with R54Y, N55H, W98S, Y100S
VL: B1 VL

IC50, HEK-Blue CD40L NF-κB activation assay (SEAP), antibody as human IgG4 (human CD40 on cells [2]): 0.0142 µg/mL
B6: D40 (antibody, human IgG4, V domains shown)
VH: B1 VH with R54Y, N55T, W98S, Y101W
VL: B1 VL

IC50, HEK-Blue CD40L NF-κB activation assay (SEAP), antibody as human IgG4 (human CD40 on cells [2]): 0.0338 µg/mL
B7: D34 (antibody, human IgG4, V domains shown)
VH: B1 VH with R54Y, W98S, N103R
VL: B1 VL with N93S

IC50, HEK-Blue CD40L NF-κB activation assay (SEAP), antibody as human IgG4 (human CD40 on cells [2]): 0.0194 µg/mL
B8: D41 (antibody, human IgG4, V domains shown)
VH: B1 VH with R54Y, N55S, W98S, Y100P
VL: B1 VL with Y94A

IC50, HEK-Blue CD40L NF-κB activation assay (SEAP), antibody as human IgG4 (human CD40 on cells [2]): 0.0156 µg/mL
B11: D38 (antibody, human IgG4, V domains shown)
VH: B1 VH with L50M, R54Y, W98S, N103V
VL: B1 VL

IC50, HEK-Blue CD40L NF-κB activation assay (SEAP), antibody as human IgG4 (human CD40 on cells [2]): 0.0212 µg/mL
B12: D36 (antibody, human IgG4, V domains shown)
VH: B1 VH with R54Y, W98S, Y100R
VL: B1 VL with R32H

IC50, HEK-Blue CD40L NF-κB activation assay (SEAP), antibody as human IgG4 (human CD40 on cells [2]): 0.0157 µg/mL
B15: D45 (antibody, human IgG4, V domains shown)
VH: B1 VH with R54Y, T59S, W98S, Y100I
VL: B1 VL with Y94Q

IC50, HEK-Blue CD40L NF-κB activation assay (SEAP), antibody as human IgG4 (human CD40 on cells [2]): 0.0211 µg/mL
B16: D37 (antibody, V domains shown)
VH: B1 VH with N52A, R54Y, W98L
VL: B1 VL

IC50, HEK-Blue CD40L NF-κB activation assay (SEAP), antibody as human IgG4 (human CD40 on cells [2]): 0.0112 µg/mL
B17: D46 (antibody, human IgG4, V domains shown)
VH: B1 VH with R54Y, N55S, W98S, S102V
VL: B1 VL

IC50, HEK-Blue CD40L NF-κB activation assay (SEAP), antibody as human IgG4 (human CD40 on cells [2]): 0.0142 µg/mL
B20: D50 (antibody, human IgG4, V domains shown)
VH: B1 VH with R54Y, T59A, W98S, N103D, M107N
VL: B1 VL

IC50, HEK-Blue CD40L NF-κB activation assay (SEAP), antibody as human IgG4 (human CD40 on cells [2]): 0.0233 µg/mL
B21: D35 (antibody, human IgG4, V domains shown)
VH: B1 VH with T33L, R54Y, W98S
VL: B1 VL with R32A

IC50, HEK-Blue CD40L NF-κB activation assay (SEAP), antibody as human IgG4 (human CD40 on cells [2]): 0.0184 µg/mL
B22: D51 (antibody, human IgG4, V domains shown)
VH: B1 VH with R54E, W98S, M107N
VL: B1 VL

IC50, HEK-Blue CD40L NF-κB activation assay (SEAP), antibody as human IgG4 (human CD40 on cells [2]): 0.03 µg/mL
B23: D39 (antibody, human IgG4, V domains shown)
VH: B1 VH with R54Y, W98S, M107Q
VL: B1 VL

IC50, HEK-Blue CD40L NF-κB activation assay (SEAP), antibody as human IgG4 (human CD40 on cells [2]): 0.0201 µg/mL
B24: D44 (antibody, human IgG4, V domains shown)
VH: B1 VH with R54Y, W98S, N103L
VL: B1 VL

IC50, HEK-Blue CD40L NF-κB activation assay (SEAP), antibody as human IgG4 (human CD40 on cells [2]): 0.0307 µg/mL
B25: D48 (antibody, human IgG4, V domains shown)
VH: B1 VH with R54S, W98S, M107N
VL: B1 VL with R32H

IC50, HEK-Blue CD40L NF-κB activation assay (SEAP), antibody as human IgG4 (human CD40 on cells [2]): 0.0168 µg/mL
B26: D43 (antibody, human IgG4, V domains shown)
VH: B1 VH with R54T, T59S, W98S, M107S
VL: B1 VL with L21M

Kd [1]: 1.5 nM | koff [1]: 0.000295 s⁻¹ | kon [1]: 196000 M⁻¹ s⁻¹ | IC50, HEK-Blue CD40L NF-κB activation assay (SEAP), antibody as human IgG4 (human CD40 on cells [2]): 0.0112 µg/mL | EC50 (read off the curve) [3]: ~0.2 µg/mL | EC50 (read off the curve) [4]: ~0.1 µg/mL
B27: D49 (antibody, human IgG4, V domains shown)
VH: B1 VH with R54Y, T59S, W98S, Y100P
VL: B1 VL with N93T
notes: also called optimized anti-CD40 antibody D49

— patent publication US20240343817A1 (STAIDSON BEIJING BIOPHARMACEUTICALS, published 2024)
